For one substance, stoichiometry N results are on record in PMC8600086.

The target in the experiment is recombinant MH8SR-tagged PfKelch13^337-726 (Plasmodium falciparum). The experiment can be described thus: SEC.

Several values for one entry are separate records, joined by “and”; a condition that tells them apart may be missing. Equal entries are not always repeated.

As to “recombinant MH8SR-tagged PfKelch13^337-726 (domain or fragment)”, the stoichiometry N (in general, a count of units in the complex or per binding partner) was 2 and 4.
